Literature values as cited in article PMC9776395.

Target: His193 (UniProt position 193, WVLGEHGDSSV)
Test: kinetics
Settings: Enzyme-NADH complex binding pyruvate (pyruvate reduction direction)

## L-lactate dehydrogenase A chain (LDHA, M subunit, LDH5 homotetramer) (Homo sapiens)
  pKa: 7.31
